Data: publication PMC13431160

Biological target: IRE1, ER stress sensor RNase, endogenous in HCT116 cells (human (endogenous in HCT116)) (UniProt O75460)
Test: co-IP; endogenous IRE1 immunoprecipitated from HCT116 WT lysate (anti-IRE1 clone B-12 cross-linked to protein G Dynabeads, 3 h at 4°C; 25 mM HEPES pH 7.3, 150 mM NaCl, 0.5% NP-40); cells treated with DMSO or TM 5 µg/mL 4 h; with or without RNase I and RNase T1 in the second wash; Western blot of IGF2BP3

UniProt O75460, sequence (O75460 19-977): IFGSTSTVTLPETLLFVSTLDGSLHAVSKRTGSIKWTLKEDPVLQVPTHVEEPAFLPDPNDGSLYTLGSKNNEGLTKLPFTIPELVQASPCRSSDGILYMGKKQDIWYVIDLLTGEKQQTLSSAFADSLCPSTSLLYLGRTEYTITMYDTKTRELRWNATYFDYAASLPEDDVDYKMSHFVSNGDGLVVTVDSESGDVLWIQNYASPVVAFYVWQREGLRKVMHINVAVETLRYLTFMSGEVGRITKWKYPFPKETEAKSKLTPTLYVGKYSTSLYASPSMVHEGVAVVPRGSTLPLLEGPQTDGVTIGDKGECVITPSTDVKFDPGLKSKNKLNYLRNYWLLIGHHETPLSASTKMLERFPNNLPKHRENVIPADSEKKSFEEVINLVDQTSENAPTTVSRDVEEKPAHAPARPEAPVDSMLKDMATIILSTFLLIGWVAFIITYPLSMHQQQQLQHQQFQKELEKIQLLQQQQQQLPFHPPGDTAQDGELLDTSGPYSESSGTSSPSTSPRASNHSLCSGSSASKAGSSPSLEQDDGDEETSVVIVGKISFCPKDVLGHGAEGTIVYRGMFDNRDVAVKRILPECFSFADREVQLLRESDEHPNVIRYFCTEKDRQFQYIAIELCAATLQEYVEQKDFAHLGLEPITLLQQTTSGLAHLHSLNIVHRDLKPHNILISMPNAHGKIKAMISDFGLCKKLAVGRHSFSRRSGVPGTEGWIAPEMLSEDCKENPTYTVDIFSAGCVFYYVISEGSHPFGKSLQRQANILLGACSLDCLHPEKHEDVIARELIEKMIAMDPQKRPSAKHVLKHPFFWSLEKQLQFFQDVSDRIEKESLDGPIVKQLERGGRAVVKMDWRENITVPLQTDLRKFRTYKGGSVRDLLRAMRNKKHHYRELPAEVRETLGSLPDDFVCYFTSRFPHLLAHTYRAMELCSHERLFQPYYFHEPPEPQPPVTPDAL

IGF2BP3 (insulin-like growth factor 2 mRNA-binding protein 3), endogenous in HCT116 cells (from UniProt O00425 1-579) (natural protein)
fold change of the interaction after 4 h of ER stress against unstressed controls: 1.6 fold
